{"source": "patent US20210333272A1", "origin": "cited, not measured here", "test_system": "CD63 fragment", "conditions": "CITED BasePair Biotechnologies CD63 aptamer data sheet; cited from earlier work", "note": "pKd: −log10 of the molar value.", "data": [{"substance": "BasePair CD63 aptamer (ATW0056)", "values": [{"measurement": "pKd", "result": 7.77}]}]}
